Source: publication PMC9352680, “A comprehensive thermodynamic model for RNA binding by the Saccharomyces cerevisiae Pumilio protein PUF4”

Biological target: T1, PUF4 RNA-binding domain (Saccharomyces cerevisiae, UniProt P25339 537-888)
T1 sequence: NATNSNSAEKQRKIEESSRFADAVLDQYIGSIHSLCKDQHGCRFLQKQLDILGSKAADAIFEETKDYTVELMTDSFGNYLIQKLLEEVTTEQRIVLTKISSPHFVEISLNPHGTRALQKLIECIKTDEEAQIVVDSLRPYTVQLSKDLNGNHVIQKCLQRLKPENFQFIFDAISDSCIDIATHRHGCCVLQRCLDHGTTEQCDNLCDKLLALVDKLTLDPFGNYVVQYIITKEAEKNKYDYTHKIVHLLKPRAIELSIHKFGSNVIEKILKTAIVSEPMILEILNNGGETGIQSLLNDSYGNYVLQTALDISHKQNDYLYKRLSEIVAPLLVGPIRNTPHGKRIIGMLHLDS
Test: Mg; RNA-MaP; 20 mM Na-HEPES pH 7.4, 30 mM KOAc, 0.75 mM MgCl2, 0.1% Tween-20, 5% glycerol, 0.1 mg/mL BSA, 2 mM DTT; 25 C; 0.0125-409.6 nM protein
Settings: tags: N-His6-TEV cleaved; C-SNAP kept, Cy3B-labelled; label: tethered on chip by stalled RNA polymerase

Binder: UCUCUUGGUAUAUUGUCUCUU (ssRNA) [Ib_S1_P4E.1_K4.1_C4.1_H4.1_[T1G]_A4.1_F4.1_[A9G]_T4.1]
- Kd: 0.69 µM

Binder: UCUCUUUUUAUAUUAUCUCUU (ssRNA) [Ia_S1_P4E.1_K4.1_C4.1_H4.1_[G2T]_A4.1_F4.1_T4.1]
- Kd: 0.655 µM

Binder: UCUCUUGGUAUAUUCUCUCUU (ssRNA) [Ib_S1_P4E.1_K4.1_C4.1_H4.1_[T1G]_A4.1_F4.1_[A9C]_T4.1]
- Kd: > 2.3 µM

Binder: UCUCUUAGUAUAUUGUCUCUU (ssRNA) [Ib_S1_P4E.1_K4.1_C4.1_H4.1_[T1A]_A4.1_F4.1_[A9G]_T4.1]
- Kd: 0.631 µM

B1: Ic_S2_P5E.1_K5.1_C5.1_H5.1_A5.1_[T6A]_[A7G]_F5.1_[T8C]_[T9C]_[A10T]_T5.1 (ssRNA)
RNA: UUUGAUUAAUAUGAUAUCGUUCUUUCUUGUAUAGCCUUUCUUUCUCGAUAUCAUAUUAAUCUUU
- Kd: 0.0614 µM

B2: Ic_S2_P5E.1_K5.1_C5.1_H5.1_A5.1_[T5C]_[T6C]_[A7C]_F5.1_[T8G]_[T9C]_[A10C]_T5.1 (ssRNA)
RNA: UUUGAUUAAUAUGAUAUCGUUCUUUCUUGUACCCGCCUUCUUUCUCGAUAUCAUAUUAAUCUUU
- Kd: 1.01 µM

B3: Ic_S2_P5E.1_K5.1_C5.1_H5.1_A5.1_[T5C]_[A7G]_F5.1_[T9G]_[A10T]_T5.1 (ssRNA)
RNA: UUUGAUUAAUAUGAUAUCGUUCUUUCUUGUACUGUGUUUCUUUCUCGAUAUCAUAUUAAUCUUU
- Kd: 0.0508 µM

B4: Ic_S2_P5E.1_K5.1_C5.1_H5.1_A5.1_[T6G]_[A7T]_F5.1_[T8G]_[T9C]_[A10C]_T5.1 (ssRNA)
RNA: UUUGAUUAAUAUGAUAUCGUUCUUUCUUGUAUGUGCCUUCUUUCUCGAUAUCAUAUUAAUCUUU
- Kd: 0.049 µM

B5: Ic_S2_P5E.1_K5.1_C5.1_H5.1_A5.1_[T5C]_[T6C]_F5.1_[T8C]_[T9C]_[A10C]_T5.1 (ssRNA)
RNA: UUUGAUUAAUAUGAUAUCGUUCUUUCUUGUACCACCCUUCUUUCUCGAUAUCAUAUUAAUCUUU
- Kd: 0.347 µM

B6: Ic_S2_P5E.1_K5.1_C5.1_H5.1_A5.1_[T5C]_[T6C]_F5.1_[T9C]_[A10C]_T5.1 (ssRNA)
RNA: UUUGAUUAAUAUGAUAUCGUUCUUUCUUGUACCAUCCUUCUUUCUCGAUAUCAUAUUAAUCUUU
- Kd: 0.00845 µM

B7: Ic_S2_P5E.1_K5.1_C5.1_H5.1_A5.1_[T6A]_[A7C]_F5.1_[T8C]_[T9C]_[A10G]_T5.1 (ssRNA)
RNA: UUUGAUUAAUAUGAUAUCGUUCUUUCUUGUAUACCCGUUCUUUCUCGAUAUCAUAUUAAUCUUU
- Kd: 0.0692 µM

B8: Ic_S2_P5E.1_K5.1_C5.1_H5.1_A5.1_[T5A]_[T6C]_[A7T]_F5.1_[T9G]_[A10T]_T5.1 (ssRNA)
RNA: UUUGAUUAAUAUGAUAUCGUUCUUUCUUGUAACUUGUUUCUUUCUCGAUAUCAUAUUAAUCUUU
- Kd: 0.304 µM

B9: Ic_S2_P5E.1_K5.1_C5.1_H5.1_A5.1_[T5C]_[T6C]_[A7C]_F5.1_[T8A]_[T9G]_[A10C]_T5.1 (ssRNA)
RNA: UUUGAUUAAUAUGAUAUCGUUCUUUCUUGUACCCAGCUUCUUUCUCGAUAUCAUAUUAAUCUUU
- Kd: 0.768 µM

B10: Ic_S2_P5E.1_K5.1_C5.1_H5.1_A5.1_[T6A]_F5.1_[T8C]_[T9G]_[A10T]_T5.1 (ssRNA)
RNA: UUUGAUUAAUAUGAUAUCGUUCUUUCUUGUAUAACGUUUCUUUCUCGAUAUCAUAUUAAUCUUU
- Kd: 0.015 µM

B11: Ic_S2_P5E.1_K5.1_C5.1_H5.1_A5.1_[T5C]_F5.1_[T8C]_[T9C]_[A10C]_T5.1 (ssRNA)
RNA: UUUGAUUAAUAUGAUAUCGUUCUUUCUUGUACUACCCUUCUUUCUCGAUAUCAUAUUAAUCUUU
- Kd: 0.245 µM

B12: Ic_S2_P5E.1_K5.1_C5.1_H5.1_A5.1_[T5C]_[T6C]_[A7G]_F5.1_[T8G]_[A10C]_T5.1 (ssRNA)
RNA: UUUGAUUAAUAUGAUAUCGUUCUUUCUUGUACCGGUCUUCUUUCUCGAUAUCAUAUUAAUCUUU
- Kd: > 2.3 µM

B13: Ic_S2_P5E.1_K5.1_C5.1_H5.1_A5.1_[T6C]_[A7G]_F5.1_[T9A]_[A10C]_T5.1 (ssRNA)
RNA: UUUGAUUAAUAUGAUAUCGUUCUUUCUUGUAUCGUACUUCUUUCUCGAUAUCAUAUUAAUCUUU
- Kd: 0.028 µM

B14: Ic_S2_P5E.1_K5.1_C5.1_H5.1_A5.1_[T5C]_[A7G]_F5.1_[T9A]_[A10T]_T5.1 (ssRNA)
RNA: UUUGAUUAAUAUGAUAUCGUUCUUUCUUGUACUGUAUUUCUUUCUCGAUAUCAUAUUAAUCUUU
- Kd: 0.00245 µM

B15: Ic_S2_P5E.1_K5.1_C5.1_H5.1_A5.1_[T5G]_[A7C]_F5.1_[T8G]_[T9C]_[A10C]_T5.1 (ssRNA)
RNA: UUUGAUUAAUAUGAUAUCGUUCUUUCUUGUAGUCGCCUUCUUUCUCGAUAUCAUAUUAAUCUUU
- Kd: 1.49 µM

B16: Ic_S2_P5E.1_K5.1_C5.1_H5.1_A5.1_[T5A]_[A7T]_F5.1_[T8A]_[T9C]_[A10G]_T5.1 (ssRNA)
RNA: UUUGAUUAAUAUGAUAUCGUUCUUUCUUGUAAUUACGUUCUUUCUCGAUAUCAUAUUAAUCUUU
- Kd: 0.761 µM

B17: Ic_S2_P5E.1_K5.1_C5.1_H5.1_A5.1_[T5C]_[T6A]_[A7G]_F5.1_[T9C]_[A10C]_T5.1 (ssRNA)
RNA: UUUGAUUAAUAUGAUAUCGUUCUUUCUUGUACAGUCCUUCUUUCUCGAUAUCAUAUUAAUCUUU
- Kd: 0.0135 µM

B18: Ic_S2_P5E.1_K5.1_C5.1_H5.1_A5.1_[T5A]_[T6C]_[A7C]_F5.1_[T8A]_[A10G]_T5.1 (ssRNA)
RNA: UUUGAUUAAUAUGAUAUCGUUCUUUCUUGUAACCAUGUUCUUUCUCGAUAUCAUAUUAAUCUUU
- Kd: 0.751 µM

B19: Ic_S2_P5E.1_K5.1_C5.1_H5.1_A5.1_[T5C]_[T6C]_F5.1_[T8C]_[T9C]_[A10G]_T5.1 (ssRNA)
RNA: UUUGAUUAAUAUGAUAUCGUUCUUUCUUGUACCACCGUUCUUUCUCGAUAUCAUAUUAAUCUUU
- Kd: 0.619 µM
